# In patent publication US20250320281A1:
# Assays:
# [1] = target: HIV-1 Env of isolate 94UG103 (subtype A) (HIV-1); experiment: cell-based or functional assay
# [2] = target: HIV-1 Env of isolate 92WR020 (subtype A) (HIV-1); experiment: cell-based or functional assay
# [3] = target: HIV-1 Env of isolate 93UG077 (subtype A) (HIV-1); experiment: cell-based or functional assay
# [4] = target: HIV-1 Env of isolate 92WR021 (subtype A) (HIV-1); experiment: cell-based or functional assay
# [5] = target: HIV-1 envelope glycoprotein (Env) of isolate JR-FL (HIV-1); experiment: cell-based or functional assay
# [6] = target: HIV-1 Env of isolate 92UG031 (subtype A) (HIV-1); experiment: cell-based or functional assay
# [7] = target: HIV-1 envelope glycoprotein (Env) of isolate MGRM-Chronic-B-004 (HIV-1); experiment: cell-based or functional assay
# [8] = target: HIV-1 envelope glycoprotein (Env) of isolate MGRM-Chronic-B-008 (HIV-1); experiment: cell-based or functional assay
# [9] = target: HIV-1 Env of isolate 92RW008 (subtype A) (HIV-1); experiment: cell-based or functional assay
# [10] = target: HIV-1 Env of isolate 92WR024 (subtype A) (HIV-1); experiment: cell-based or functional assay
# [11] = target: HIV-1 envelope glycoprotein (Env) of isolate MGRM-Chronic-B-001 (HIV-1); experiment: cell-based or functional assay
# [12] = target: HIV-1 envelope glycoprotein (Env) of isolate MGRM-Chronic-B-003 (HIV-1); experiment: cell-based or functional assay
# [13] = target: HIV-1 envelope glycoprotein (Env) of isolate MGRM-Chronic-B-002 (HIV-1); experiment: cell-based or functional assay
# [14] = target: HIV-1 envelope glycoprotein (Env) of isolate APV_6 (HIV-1); experiment: cell-based or functional assay
# [15] = target: HIV-1 envelope glycoprotein (Env) of isolate 6535.3 (HIV-1); experiment: cell-based or functional assay
# [16] = target: HIV-1 Env of isolate 92WR009 (subtype A) (HIV-1); experiment: cell-based or functional assay
# [17] = target: HIV-1 envelope glycoprotein (Env) of isolate 93TH305 (HIV-1); experiment: cell-based or functional assay
# [18] = target: HIV-1 envelope glycoprotein (Env) of isolate APV_17 (HIV-1); experiment: cell-based or functional assay
# [19] = target: HIV-1 Env of isolate 94 KE 105 (subtype AC) (HIV-1); experiment: cell-based or functional assay
# [20] = target: HIV-1 Env of isolate 92UG037 (subtype A) (HIV-1); experiment: cell-based or functional assay
# [21] = target: HIV-1 envelope glycoprotein (Env) of isolate APV_13 (HIV-1); experiment: cell-based or functional assay
# [22] = target: HIV-1 envelope glycoprotein (Env) of isolate CAAN.A2 (HIV-1); experiment: cell-based or functional assay
# [23] = target: HIV-1 Env of isolate MG RM-D-008 (HIV-1); experiment: cell-based or functional assay
# [24] = target: JR-FL gp120 ΔV1/ΔV2 (HIV-1); experiment: ELISA, antigen-coated wells
# [25] = target: HIV-1 Env of isolate LAVIC_18 (HIV-1); experiment: cell-based or functional assay
# [26] = target: HIV-1 92TH021 Env on pseudotyped virus (HIV-1 isolate 92TH021); experiment: cell-based or functional assay
# [27] = target: HIV-1 93IN905 Env on pseudotyped virus (HIV-1 isolate 93IN905); experiment: cell-based or functional assay
# [28] = target: HIV-1 NL43 Env on pseudotyped virus (HIV-1 NL43); experiment: cell-based or functional assay
# [29] = target: HIV-1 Env of pseudovirus 92TH021 (clade CRF01_AE) (HIV-1); experiment: cell-based or functional assay
# [30] = target: HIV-1 Env of isolate APV_17, clade B, on pseudovirus (HIV-1); experiment: cell-based or functional assay
# [31] = target: HIV-1 94UG103 Env on pseudotyped virus (HIV-1 isolate 94UG103); experiment: cell-based or functional assay
# [32] = target: HIV-1 Env of pseudovirus MGRM-G-015 (HIV-1, clade G isolate MGRM-G-015); experiment: cell-based or functional assay
# [33] = target: HIV-1 JR-CSF Env on pseudotyped virus (HIV-1 isolate JR-CSF) (UniProt P20871); experiment: cell-based or functional assay
# [34] = target: HIV-1 Env of pseudovirus MGRM-F1-013 (HIV-1); experiment: cell-based or functional assay
# 1443_C16 (PG16) (TCN-116) (antibody), sequence (VH): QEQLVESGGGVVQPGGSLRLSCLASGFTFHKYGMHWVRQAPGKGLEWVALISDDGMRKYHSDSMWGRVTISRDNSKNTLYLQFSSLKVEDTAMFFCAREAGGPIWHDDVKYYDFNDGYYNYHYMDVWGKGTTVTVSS
# 1443_C16 (PG16) (TCN-116) (antibody), sequence (VL): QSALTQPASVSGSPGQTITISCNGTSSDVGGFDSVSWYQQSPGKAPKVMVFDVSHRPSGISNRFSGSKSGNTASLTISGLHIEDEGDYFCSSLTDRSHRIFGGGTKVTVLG
substance,measurement,setting,value
VRC01 (antibody),"IC50 (µg/mL), pseudovirus neutralization",[1],0.285 µg/mL
same,"IC50 (µg/mL), pseudovirus neutralization",[2],0.13 µg/mL
same,"IC50 (µg/mL), pseudovirus neutralization",[3],0.097 µg/mL
same,"IC50 (µg/mL), pseudovirus neutralization",[4],0.066 µg/mL
same,"IC50 (µg/mL), pseudovirus neutralization",[5],0.034 µg/mL
same,"IC50 (µg/mL), pseudovirus neutralization",[6],0.469 µg/mL
same,"IC50 (µg/mL), pseudovirus neutralization",[7],0.055 µg/mL
same,"IC50 (µg/mL), pseudovirus neutralization",[8],0.155 µg/mL
same,"IC50 (µg/mL), pseudovirus neutralization",[9],0.037 µg/mL
same,"IC50 (µg/mL), pseudovirus neutralization",[10],0.327 µg/mL
same,"IC50 (µg/mL), pseudovirus neutralization",[11],0.066 µg/mL
same,"IC50 (µg/mL), pseudovirus neutralization",[12],0.1 µg/mL
same,"IC50 (µg/mL), pseudovirus neutralization",[13],0.117 µg/mL
same,"IC50 (µg/mL), pseudovirus neutralization",[14],1.81 µg/mL
same,"IC50 (µg/mL), pseudovirus neutralization",[15],1.75 µg/mL
same,"IC50 (µg/mL), pseudovirus neutralization",[16],0.187 µg/mL
same,"IC50 (µg/mL), pseudovirus neutralization",[17],0.243 µg/mL
same,"IC50 (µg/mL), pseudovirus neutralization",[18],0.477 µg/mL
same,"IC50 (µg/mL), pseudovirus neutralization",[19],0.499 µg/mL
same,"IC50 (µg/mL), pseudovirus neutralization",[20],0.245 µg/mL
same,"IC50 (µg/mL), pseudovirus neutralization",[21],0.657 µg/mL
same,"IC50 (µg/mL), pseudovirus neutralization",[22],0.722 µg/mL
5114_A19 (PGT-128) (antibody),"IC50 (µg/mL), pseudovirus neutralization",[23],0.033 µg/mL
same,EC50,[24],0.3 µg/mL
1443_C16 (PG16) (TCN-116) (antibody),IC50,[25],0.02 µg/mL
same,Neutralizing Antibody Assay: IC50; Virus/Ab Incubation 1 hour,[26],0.136 µg/mL
same,Neutralizing Antibody Assay: IC50; Virus/Ab Incubation 18 hour,[26],0.0435 µg/mL
same,Neutralizing Antibody Assay: IC50; Virus/Ab Incubation 1 hour,[27],0.33 µg/mL
same,Neutralizing Antibody Assay: IC50; Virus/Ab Incubation 18 hour,[27],0.255 µg/mL
same,Neutralizing Antibody Assay: IC50; Virus/Ab Incubation 1 hour,[28],< 0.0025 µg/mL
same,Neutralizing Antibody Assay: IC50; Virus/Ab Incubation 18 hour,[28],4.99 µg/mL
same,IC50,[29],0.1 µg/mL
same,"IC50 (µg/ml), pseudovirus neutralization",[30],24.8 µg/mL
same,Neutralizing Antibody Assay: IC50; Virus/Ab Incubation 1 hour,[31],0.0211 µg/mL
same,Neutralizing Antibody Assay: IC50; Virus/Ab Incubation 18 hour,[31],8.5 ng/mL
same,"IC50 (µg/ml), pseudovirus neutralization",[32],5.33 µg/mL
same,Neutralizing Antibody Assay: IC50; Virus/Ab Incubation 1 hour,[33],< 0.0025 µg/mL
same,Neutralizing Antibody Assay: IC50; Virus/Ab Incubation 18 hour,[33],< 0.0025 µg/mL
2F5 (antibody),IC50,[25],> 50 µg/mL
same,"IC50 (µg/ml), pseudovirus neutralization",[34],4.57 µg/mL
same,"IC50 (µg/ml), pseudovirus neutralization",[30],4.61 µg/mL
same,"IC50 (µg/ml), pseudovirus neutralization",[32],0.43 µg/mL
5147_N06 (PGT-130) (antibody),"IC50 (µg/mL), pseudovirus neutralization",[23],> 50 µg/mL
1495_C14 (PGC14) (antibody),IC50,[25],> 50 µg/mL
same,Neutralizing Antibody Assay: IC50; Virus/Ab Incubation 1 hour,[26],> 50 µg/mL
same,Neutralizing Antibody Assay: IC50; Virus/Ab Incubation 18 hour,[26],> 50 µg/mL
same,Neutralizing Antibody Assay: IC50; Virus/Ab Incubation 1 hour,[27],> 50 µg/mL
same,Neutralizing Antibody Assay: IC50; Virus/Ab Incubation 18 hour,[27],0.146 µg/mL
same,Neutralizing Antibody Assay: IC50; Virus/Ab Incubation 1 hour,[28],0.35 µg/mL
same,Neutralizing Antibody Assay: IC50; Virus/Ab Incubation 18 hour,[28],0.15 µg/mL
same,IC50,[29],> 50 µg/mL
same,"IC50 (µg/ml), pseudovirus neutralization",[34],6 µg/mL
same,"IC50 (µg/ml), pseudovirus neutralization",[30],> 50 µg/mL
same,Neutralizing Antibody Assay: IC50; Virus/Ab Incubation 1 hour,[31],> 50 µg/mL
same,Neutralizing Antibody Assay: IC50; Virus/Ab Incubation 18 hour,[31],> 50000 ng/mL
same,"IC50 (µg/ml), pseudovirus neutralization",[32],> 50 µg/mL
same,Neutralizing Antibody Assay: IC50; Virus/Ab Incubation 1 hour,[33],> 50 µg/mL
same,Neutralizing Antibody Assay: IC50; Virus/Ab Incubation 18 hour,[33],> 50 µg/mL
4E10 (antibody),IC50,[25],> 50 µg/mL
same,IC50,[29],1.17 µg/mL
same,"IC50 (µg/ml), pseudovirus neutralization",[30],10.5 µg/mL
same,"IC50 (µg/ml), pseudovirus neutralization",[32],1.07 µg/mL
b12 (antibody),IC50,[25],> 50 µg/mL
same,"IC50 (µg/ml), pseudovirus neutralization",[34],> 50 µg/mL
same,"IC50 (µg/ml), pseudovirus neutralization",[30],> 50 µg/mL
same,"IC50 (µg/ml), pseudovirus neutralization",[32],> 50 µg/mL
